Assay [1] has as its target T1, S protein of PEDV-CV777 (G1 PEDV) (Porcine epidemic diarrhea virus, CV777 …, UniProt H2DFZ6).
T1 construct: spike (S) protein of porcine epidemic diarrhea virus strain CV777; stood on infected cells and on purified virions; The antigen in the assays was the infected cell or the whole virion; also called G1 PEDV S protein; historic vaccine strain; source: PEDV-CV777 in infected Vero cells (acetone-fixed); purified PEDV-CV777 virions
The assay can be described thus: immunostaining of cells or tissue; ICC (HRP/DAB) and IFA (FITC) on PEDV-infected Vero cells fixed with 80% acetone; scFv 5 ug/mL in PBS for 1 h, detected by anti-V5 antibody; PBS blank as background control. The following applies: one partner purified.

Assay [2] addresses T2, ectodomain of the S protein of PEDV (GeneBank no. HC070225-S) (Porcine epidemic diarrhea virus, …, UniProt A0A1Y0DDF5).
T2 construct: spike (S) glycoprotein of porcine epidemic diarrhea virus, ectodomain; also called PEDV S protein; purified trimeric PEDV S glycoprotein; source: Expi293F cells, secreted, purified from the culture medium
The assay can be described thus: retention on a 100 kDa MWCO spin column (called immunoprecipitation pull-down assay); 25 pmol S protein with 125 pmol scFv, 37 C for 3 h; 100 kDa MWCO filtration, 10 washes with dPBS; SDS-PAGE with Coomassie; control of scFv alone. The conditions noted are these: both partners purified.

T1 sequence (Q91AV1 26-1383): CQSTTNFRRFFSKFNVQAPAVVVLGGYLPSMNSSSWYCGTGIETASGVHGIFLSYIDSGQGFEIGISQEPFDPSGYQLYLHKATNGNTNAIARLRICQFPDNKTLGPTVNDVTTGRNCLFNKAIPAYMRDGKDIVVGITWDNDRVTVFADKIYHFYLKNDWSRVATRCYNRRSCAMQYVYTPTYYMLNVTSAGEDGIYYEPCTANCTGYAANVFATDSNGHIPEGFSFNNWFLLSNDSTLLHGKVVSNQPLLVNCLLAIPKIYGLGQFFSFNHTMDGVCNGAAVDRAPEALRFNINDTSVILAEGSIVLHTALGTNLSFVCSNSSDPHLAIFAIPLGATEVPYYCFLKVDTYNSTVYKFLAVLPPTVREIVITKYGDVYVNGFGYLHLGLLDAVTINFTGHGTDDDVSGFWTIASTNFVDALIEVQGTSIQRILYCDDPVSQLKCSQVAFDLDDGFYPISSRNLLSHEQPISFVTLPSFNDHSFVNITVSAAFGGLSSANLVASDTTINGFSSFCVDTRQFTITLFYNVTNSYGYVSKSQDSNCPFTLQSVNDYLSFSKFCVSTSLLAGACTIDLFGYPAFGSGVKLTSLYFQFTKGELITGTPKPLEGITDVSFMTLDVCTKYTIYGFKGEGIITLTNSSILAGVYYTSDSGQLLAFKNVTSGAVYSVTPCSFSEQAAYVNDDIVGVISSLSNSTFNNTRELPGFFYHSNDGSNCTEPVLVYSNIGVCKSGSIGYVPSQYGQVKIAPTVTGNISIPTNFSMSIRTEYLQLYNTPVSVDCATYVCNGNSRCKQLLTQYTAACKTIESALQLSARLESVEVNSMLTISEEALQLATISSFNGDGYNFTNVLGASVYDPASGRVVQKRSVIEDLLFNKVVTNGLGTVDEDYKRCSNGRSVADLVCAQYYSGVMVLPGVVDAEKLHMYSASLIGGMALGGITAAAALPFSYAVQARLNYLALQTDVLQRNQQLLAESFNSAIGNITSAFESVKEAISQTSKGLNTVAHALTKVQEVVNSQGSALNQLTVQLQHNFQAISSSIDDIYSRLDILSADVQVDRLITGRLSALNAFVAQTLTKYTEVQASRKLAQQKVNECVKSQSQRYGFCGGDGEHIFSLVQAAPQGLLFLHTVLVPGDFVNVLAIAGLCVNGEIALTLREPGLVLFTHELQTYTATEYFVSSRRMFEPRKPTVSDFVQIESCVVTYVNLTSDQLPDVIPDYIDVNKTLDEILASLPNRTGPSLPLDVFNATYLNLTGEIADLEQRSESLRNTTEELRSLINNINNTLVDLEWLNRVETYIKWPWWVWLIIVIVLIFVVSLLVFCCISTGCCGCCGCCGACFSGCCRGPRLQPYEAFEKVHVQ

B1: recombinant scFv of the PEDV S1^A-specific neutralizing monoclonal antibody E10E-1-10 (scFv, V domains shown)
VH: QVQLQQSGAELARPGTSVKMSCKASGYTFTNYMMHWIKQRPGQGLEWIGYINPSTGYTNYNQKFKDKATLTADKSSSTAYVQLNILTSEDSAVYYCATSTLITGDYWGQGTTLTVSS
VL: NIVLTQSPKSMSMSVGERVTLSCKASENVGTYVSWYQQKPKQSPKLLIYGTFNRYTGVPDRFTGSGSATDFTLTISSVQAEDLADYHCGQSYNYPFTFGSGTKLEIK
notes: (G4S)3 linker; About 30 kDa; The order VL, linker, VH follows the order in which the methods name the regions; also called E10E-1-10 scFv; anti-PEDV S1^A scFv; source: Expi293F cells, transfected, secreted; purified from the supernatant (IMAC on cobalt resin, SEC on Superdex 75 Increase)
Take B1: the binding result in assay [1] and in assay [2] was “binds” each time.

These data come from paper PMC8402611, “Generation and Characterization of a Spike Glycoprotein Domain A-Specific Neutralizing Single-Chain Variable Fragment against Porcine Epidemic Diarrhea Virus” (Vaccines, 2021).
